These results are taken from patent US20070178095A1.

Common to all, as to test: ELISA, growth factor coated at 10 ug/ml, antibody at 10 ug/ml, mean of duplicate wells
Assay [1] has as its target Activin A (R&D Systems 338-AC) (UniProt P08476).
Assay [2] has as its target Activin B (R&D Systems 659-AB) (UniProt P09529).
For assay [3], the target named is BMP-2 (R&D Systems 355-BEC/CF) (UniProt P12643).
Assay [4] addresses BMP-5 (R&D Systems 615-BM) (UniProt P22003).
Assay [5] addresses BMP-6 (R&D Systems 507-BP) (UniProt P22004).
Assay [6] concerns the target BMP-7 (R&D Systems 354-BP) (UniProt P18075).
The target in assay [7] is IGF-1 (R&D Systems 291-G1) (UniProt P05019).
Assay [8] addresses TGF-alpha (R&D Systems 239-A) (UniProt P01135).
Assay [9] deals with TGF-beta1 (Peprotech, Inc. 100-21R) (UniProt P01137).
The target in assay [10] is TGF-beta2 (Peprotech, Inc. 100-35) (UniProt P61812).
Assay [11] concerns the target recombinant human GDF-11 (Peprotech, Inc., Cat. # 120-11, carrier-free) (human) (UniProt O95390).
The target in assay [12] is recombinant mouse myostatin (R&D systems, Cat. #788-G8/CF, carrier-free) (mouse) (UniProt O08689).
Sequence of recombinant mouse myostatin (R&D systems, Cat. #788-G8/CF, carrier-free) (mouse) (O08689 268-376): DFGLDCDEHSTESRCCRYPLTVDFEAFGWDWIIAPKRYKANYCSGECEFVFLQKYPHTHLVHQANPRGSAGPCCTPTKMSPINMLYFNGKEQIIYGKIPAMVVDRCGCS

Sequence of BMP-2 (R&D Systems 355-BEC/CF) (P12643 283-396 limits assumed): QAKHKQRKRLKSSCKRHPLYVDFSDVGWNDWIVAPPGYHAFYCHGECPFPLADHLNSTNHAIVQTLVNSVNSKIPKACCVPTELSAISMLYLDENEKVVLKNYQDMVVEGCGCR
Sequence of TGF-alpha (R&D Systems 239-A) (P01135 40-89 limits assumed): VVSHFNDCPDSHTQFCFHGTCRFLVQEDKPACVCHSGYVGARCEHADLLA
Sequence of Activin A (R&D Systems 338-AC) (P08476 311-426 limits assumed): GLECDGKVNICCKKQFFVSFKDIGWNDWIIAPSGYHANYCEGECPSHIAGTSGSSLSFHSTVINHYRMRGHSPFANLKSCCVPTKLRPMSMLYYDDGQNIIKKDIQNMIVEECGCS
Sequence of IGF-1 (R&D Systems 291-G1) (P05019 49-118 limits assumed): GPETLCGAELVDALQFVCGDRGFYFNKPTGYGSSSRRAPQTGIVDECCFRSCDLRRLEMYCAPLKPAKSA
Sequence of recombinant human GDF-11 (Peprotech, Inc., Cat. # 120-11, carrier-free) (human) (O95390 299-407 limits assumed): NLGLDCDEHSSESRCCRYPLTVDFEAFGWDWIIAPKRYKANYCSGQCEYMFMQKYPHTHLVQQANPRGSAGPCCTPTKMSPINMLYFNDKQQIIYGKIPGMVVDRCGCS
Sequence of TGF-beta2 (Peprotech, Inc. 100-35) (P61812 303-414 limits assumed): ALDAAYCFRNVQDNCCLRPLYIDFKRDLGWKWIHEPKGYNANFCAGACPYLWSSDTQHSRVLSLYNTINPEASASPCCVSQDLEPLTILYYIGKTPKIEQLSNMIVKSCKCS
Sequence of Activin B (R&D Systems 659-AB) (P09529 293-407 limits assumed): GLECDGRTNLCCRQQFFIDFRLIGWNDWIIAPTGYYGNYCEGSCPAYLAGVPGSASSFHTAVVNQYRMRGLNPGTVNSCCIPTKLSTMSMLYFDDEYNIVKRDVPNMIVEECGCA
Sequence of BMP-7 (R&D Systems 354-BP) (P18075 293-431 limits assumed): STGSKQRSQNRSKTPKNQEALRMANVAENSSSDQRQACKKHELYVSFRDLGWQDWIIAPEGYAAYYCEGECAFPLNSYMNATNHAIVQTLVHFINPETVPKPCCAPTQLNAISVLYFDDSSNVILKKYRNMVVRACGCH
Sequence of TGF-beta1 (Peprotech, Inc. 100-21R) (P01137 279-390 limits assumed): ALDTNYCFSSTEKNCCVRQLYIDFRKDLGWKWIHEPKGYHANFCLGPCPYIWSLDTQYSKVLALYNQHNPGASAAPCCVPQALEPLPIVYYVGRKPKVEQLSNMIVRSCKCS
Sequence of BMP-6 (R&D Systems 507-BP) (P22004 382-513 limits assumed): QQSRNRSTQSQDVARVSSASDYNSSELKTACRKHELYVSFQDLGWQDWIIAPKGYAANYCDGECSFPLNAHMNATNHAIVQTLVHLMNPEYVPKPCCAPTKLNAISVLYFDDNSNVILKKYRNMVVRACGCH
Sequence of BMP-5 (R&D Systems 615-BM) (P22003 317-454 limits assumed): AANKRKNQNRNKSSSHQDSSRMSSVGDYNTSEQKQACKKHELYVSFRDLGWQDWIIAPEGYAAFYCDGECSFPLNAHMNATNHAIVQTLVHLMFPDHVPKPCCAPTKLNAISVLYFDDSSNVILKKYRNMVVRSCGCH

Regarding “polyclonal anti-myostatin antibody (R&D Systems, catalog #AF788)”, the absorbance at 490 nm was 0.049 OD 490 nm in assay [1]; 0.0485 OD 490 nm in [2]; 0.0525 OD 490 nm in assay [3]; 0.038 OD 490 nm in [4]; 0.0745 OD 490 nm in assay [5]; 0.042 OD 490 nm in assay [6]. Further, the absorbance at 490 nm in assay [7] turned out to be 0.045 OD 490 nm; in assay [8], 0.0445 OD 490 nm; in [9], 0.0425 OD 490 nm; in assay [10], 0.0525 OD 490 nm; in assay [11], 2.62 OD 490 nm; in assay [12], 2.94 OD 490 nm.
